PMC9352680, “A comprehensive thermodynamic model for RNA binding by the Saccharomyces cerevisiae Pumilio protein PUF4”

T1: PUF4 RNA-binding domain (Saccharomyces cerevisiae, UniProt P25339 537-888)
T1 sequence: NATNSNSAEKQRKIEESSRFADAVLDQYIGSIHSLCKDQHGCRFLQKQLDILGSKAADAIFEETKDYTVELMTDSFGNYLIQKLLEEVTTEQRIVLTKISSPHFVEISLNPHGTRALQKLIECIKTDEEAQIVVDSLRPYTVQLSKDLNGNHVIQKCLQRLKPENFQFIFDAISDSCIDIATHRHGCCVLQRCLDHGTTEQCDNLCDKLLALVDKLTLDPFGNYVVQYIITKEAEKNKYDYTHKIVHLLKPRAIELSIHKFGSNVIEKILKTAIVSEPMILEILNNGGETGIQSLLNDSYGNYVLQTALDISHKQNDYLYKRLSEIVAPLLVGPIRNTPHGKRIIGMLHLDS


Molecular target: T1, PUF4 RNA-binding domain
Assay: Mg; RNA-MaP; 20 mM Na-HEPES pH 7.4, 30 mM KOAc, 0.75 mM MgCl2, 0.1% Tween-20, 5% glycerol, 0.1 mg/mL BSA, 2 mM DTT; 25 C; 0.0125-409.6 nM protein
Details: tags: N-His6-TEV cleaved; C-SNAP kept, Cy3B-labelled; label: tethered on chip by stalled RNA polymerase

Binder	Kd [nM]
Id_ii_S2_P5E.2_K5.1_C5.2_[C-2G]_[T-1C]_H5.1_A5.1_F5.1_T5.2_[T11A]_[A12C] (ssRNA) RNA: UUUGAUUAAUAUGAUAUCGUUCUUUCUGCUGUAUUAUUAACUUCUUUCUCGAUAUCAUAUUAAUCUUU	25.4
Id_ii_S2_P5E.2_K5.1_C5.2_[C-2A]_[T-1G]_H5.1_A5.1_F5.1_T5.2_[T11A]_[A12T] (ssRNA) RNA: UUUGAUUAAUAUGAUAUCGUUCUUUCUAGUGUAUUAUUAAUUUCUUUCUCGAUAUCAUAUUAAUCUUU	7.45
Id_ii_S2_P5E.2_K5.1_C5.2_[C-2T]_[T-1A]_H5.1_A5.1_F5.1_T5.2_[T11A]_[A12C] (ssRNA) RNA: UUUGAUUAAUAUGAUAUCGUUCUUUCUUAUGUAUUAUUAACUUCUUUCUCGAUAUCAUAUUAAUCUUU	8.24
Id_ii_S2_P5E.2_K5.1_C5.2_[C-2T]_[T-1G]_H5.1_A5.1_F5.1_T5.2_[T11A] (ssRNA) RNA: UUUGAUUAAUAUGAUAUCGUUCUUUCUUGUGUAUUAUUAAAUUCUUUCUCGAUAUCAUAUUAAUCUUU	1.72
Id_ii_S2_P5E.2_K5.1_C5.2_[C-2T]_[T-1A]_H5.1_A5.1_F5.1_T5.2_[T11A] (ssRNA) RNA: UUUGAUUAAUAUGAUAUCGUUCUUUCUUAUGUAUUAUUAAAUUCUUUCUCGAUAUCAUAUUAAUCUUU	12.2
Id_ii_S2_P5E.2_K5.1_C5.2_[C-2T]_[T-1G]_H5.1_A5.1_F5.1_T5.2_[T11A]_[A12T] (ssRNA) RNA: UUUGAUUAAUAUGAUAUCGUUCUUUCUUGUGUAUUAUUAAUUUCUUUCUCGAUAUCAUAUUAAUCUUU	1.41
Id_ii_S2_P5E.2_K5.1_C5.2_[C-2T]_[T-1A]_H5.1_A5.1_F5.1_T5.2_[A12C] (ssRNA) RNA: UUUGAUUAAUAUGAUAUCGUUCUUUCUUAUGUAUUAUUAUCUUCUUUCUCGAUAUCAUAUUAAUCUUU	4.16
Id_ii_S2_P5E.2_K5.1_C5.2_[C-2T]_[T-1A]_H5.1_A5.1_F5.1_T5.2_[T11G]_[A12T] (ssRNA) RNA: UUUGAUUAAUAUGAUAUCGUUCUUUCUUAUGUAUUAUUAGUUUCUUUCUCGAUAUCAUAUUAAUCUUU	4.78
Id_ii_S2_P5E.2_K5.1_C5.2_[C-2G]_H5.1_A5.1_F5.1_T5.2_[T11G]_[A12T] (ssRNA) RNA: UUUGAUUAAUAUGAUAUCGUUCUUUCUGUUGUAUUAUUAGUUUCUUUCUCGAUAUCAUAUUAAUCUUU	3.05
Id_ii_S2_P5E.2_K5.1_C5.2_[C-2T]_[T-1C]_H5.1_A5.1_F5.1_T5.2_[T11A] (ssRNA) RNA: UUUGAUUAAUAUGAUAUCGUUCUUUCUUCUGUAUUAUUAAAUUCUUUCUCGAUAUCAUAUUAAUCUUU	4.24
Id_ii_S2_P5E.2_K5.1_C5.2_[C-2T]_H5.1_A5.1_F5.1_T5.2_[T11A]_[A12T] (ssRNA) RNA: UUUGAUUAAUAUGAUAUCGUUCUUUCUUUUGUAUUAUUAAUUUCUUUCUCGAUAUCAUAUUAAUCUUU	3.17
Id_ii_S2_P5E.2_K5.1_C5.2_[C-2T]_H5.1_A5.1_F5.1_T5.2_[T11G]_[A12T] (ssRNA) RNA: UUUGAUUAAUAUGAUAUCGUUCUUUCUUUUGUAUUAUUAGUUUCUUUCUCGAUAUCAUAUUAAUCUUU	3.67
Id_ii_S2_P5E.2_K5.1_C5.2_[C-2T]_[T-1C]_H5.1_A5.1_F5.1_T5.2_[A12C] (ssRNA) RNA: UUUGAUUAAUAUGAUAUCGUUCUUUCUUCUGUAUUAUUAUCUUCUUUCUCGAUAUCAUAUUAAUCUUU	2.98
Id_ii_S2_P5E.2_K5.1_C5.2_[C-2T]_H5.1_A5.1_F5.1_T5.2_[A12T] (ssRNA) RNA: UUUGAUUAAUAUGAUAUCGUUCUUUCUUUUGUAUUAUUAUUUUCUUUCUCGAUAUCAUAUUAAUCUUU	1.44
Id_ii_S2_P5E.2_K5.1_C5.2_[C-2G]_[T-1C]_H5.1_A5.1_F5.1_T5.2_[A12T] (ssRNA) RNA: UUUGAUUAAUAUGAUAUCGUUCUUUCUGCUGUAUUAUUAUUUUCUUUCUCGAUAUCAUAUUAAUCUUU	3.07
Id_ii_S2_P5E.2_K5.1_C5.2_[C-2T]_[T-1A]_H5.1_A5.1_F5.1_T5.2_[A12T] (ssRNA) RNA: UUUGAUUAAUAUGAUAUCGUUCUUUCUUAUGUAUUAUUAUUUUCUUUCUCGAUAUCAUAUUAAUCUUU	2.85
Id_ii_S2_P5E.2_K5.1_C5.2_[C-2G]_H5.1_A5.1_F5.1_T5.2_[A12T] (ssRNA) RNA: UUUGAUUAAUAUGAUAUCGUUCUUUCUGUUGUAUUAUUAUUUUCUUUCUCGAUAUCAUAUUAAUCUUU	2.47
Id_ii_S2_P5E.2_K5.1_C5.2_[C-2T]_[T-1G]_H5.1_A5.1_F5.1_T5.2_[A12T] (ssRNA) RNA: UUUGAUUAAUAUGAUAUCGUUCUUUCUUGUGUAUUAUUAUUUUCUUUCUCGAUAUCAUAUUAAUCUUU	1.42
Id_ii_S2_P5E.2_K5.1_C5.2_[C-2G]_[T-1C]_H5.1_A5.1_F5.1_T5.2_[T11A] (ssRNA) RNA: UUUGAUUAAUAUGAUAUCGUUCUUUCUGCUGUAUUAUUAAAUUCUUUCUCGAUAUCAUAUUAAUCUUU	7.06
Id_ii_S2_P5E.2_K5.1_C5.2_[C-2T]_[T-1C]_H5.1_A5.1_F5.1_T5.2_[A12T] (ssRNA) RNA: UUUGAUUAAUAUGAUAUCGUUCUUUCUUCUGUAUUAUUAUUUUCUUUCUCGAUAUCAUAUUAAUCUUU	1.5
Id_ii_S2_P5E.2_K5.1_C5.2_[C-2T]_H5.1_A5.1_F5.1_T5.2_[A12C] (ssRNA) RNA: UUUGAUUAAUAUGAUAUCGUUCUUUCUUUUGUAUUAUUAUCUUCUUUCUCGAUAUCAUAUUAAUCUUU	1.86
Id_ii_S2_P5E.2_K5.1_C5.2_[C-2T]_[T-1G]_H5.1_A5.1_F5.1_T5.2_[A12C] (ssRNA) RNA: UUUGAUUAAUAUGAUAUCGUUCUUUCUUGUGUAUUAUUAUCUUCUUUCUCGAUAUCAUAUUAAUCUUU	1.84
